Biological target: T1, rogf8_arath ROPGEF8 (UniProt Q9LV40)
T1 sequence: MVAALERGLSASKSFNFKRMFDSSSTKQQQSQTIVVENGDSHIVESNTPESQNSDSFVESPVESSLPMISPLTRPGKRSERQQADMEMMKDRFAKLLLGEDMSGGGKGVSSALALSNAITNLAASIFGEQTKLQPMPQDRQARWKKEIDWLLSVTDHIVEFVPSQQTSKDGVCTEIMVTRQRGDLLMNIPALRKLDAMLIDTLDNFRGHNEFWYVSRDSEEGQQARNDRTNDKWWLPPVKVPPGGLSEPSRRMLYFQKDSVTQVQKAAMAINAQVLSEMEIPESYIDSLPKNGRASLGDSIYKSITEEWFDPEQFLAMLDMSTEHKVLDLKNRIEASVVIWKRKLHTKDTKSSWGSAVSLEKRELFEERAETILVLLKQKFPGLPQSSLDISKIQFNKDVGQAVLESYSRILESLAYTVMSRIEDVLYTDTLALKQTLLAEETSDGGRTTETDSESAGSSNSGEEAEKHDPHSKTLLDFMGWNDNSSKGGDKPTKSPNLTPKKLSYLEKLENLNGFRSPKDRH

Q: How did the “effect of a mutation on the interaction” value turn out when “Ras-related C3 botulinum toxin substrate 1 (Homo sapiens) (from UniProt P63000) P73C” was run?
A: increasing interaction

Source: IntAct's records for PubMed 19070620
